Laboratory results taken from patent US20260131011A1.
No end group written: not given here.

B1: HPIV3_3004 (native) HR2 ligand conjugated to cholesterol (Peptide Conjugate 12) (peptide)
peptide: VALDPIDISIELNKAKSDLEESKEWIRRSNQKLDSI
modifications: also: conjugated to cholesterol
With B1 the EC50 (RSVB18537) was under 40 nM, the EC50 (hPIVC243) was over 5290 nM and the EC50 (RSVA2) was 50 nM.
